In patent US20220056123A1, “USE OF IL-1BETA BINDING ANTIBODIES” (NOVARTIS AG, priority 2018, published 2022):
Where two headings read alike, the source gives them in different places.

Tests used:
[1] = test system: CD34+ blood vessels in trabecular bone; experiment: Bone microvasculature after suppression of IL-1β signalling; type: in vivo, BALB/c nude mice and C57BL/6 mice
Experimental: FIG. 7. IL-1β in the bone microenvironment stimulates expansion of the bone metastatic niche. Effects of adding 40 pg/ml or 5 ng/ml recombinant IL-1β to MDA-MB-231 or T47D breast cancer cells is shown in (a) and effects on adding 20 pg/ml, 40 pg/ml or 5 ng/ml IL-1B on proliferation of HS5, bone marrow, or OB1, osteoblasts, are shown in b) and c) respectively. (d) IL-1 driven alterations to the bone vasculature was measured following CD34 staining in the trabecular region of the tibiae from 10-12-week old female IL-1R1 knockout mice. […] Data are shown as mean+/−SEM, *=P<0.01, **=P<0.001, ***=P<0.0001.
FIG. 8. Suppression of IL-1β signalling affects bone integrity and vasculature. […] Data shown are mean+/−SEM, *=P<0.01, **=P<0.001, ***=P<0.0001 compared with control.
To model human breast cancer metastasis to human bone implants two human bone discs were implanted subcutaneously into 10-week old female NOD SCID mice (n=10/group) under isofluorane anaesthetic. Mice received an injection of 0.003 mg vetergesic and Septrin was added to the drinking water for 1 week following bone implantation. Mice were left for 4 weeks before injecting 1×10^5 MDA-MB-231 Luc2-TdTomato, MCF7 Luc2 or T47D Luc2 cells in 20% Martigel/79% PBS/1% toluene blue into the two hind mammary fat pads. Primary tumor growth and development of metastases was monitored weekly using an IVIS […] system (Caliper Life Sciences) following sub-cutaneous injection of 30 mg/ml D-luciferin (Invitrogen). On termination of experiments mammary tumors, circulating tumor cells, serum and bone metastases were resected. RNA was processed for downstream analysis by real time PCR, and cell lysates were taken for protein analysis and whole tissue for histology as previously described (Nutter et al., 2014; Ottewell et al., 2014a). […] Tumor cells, serum, and bone were subsequently resected for downstream analysis. Bone metastases were investigated following injection of 5×10^5 MDA-MB-231 GFP (control), MDA-MB-231-IV, MDA-MB-231-IL-1B-positive or MDA-MB-231-IL-1R1-positive cells into the lateral tail vein of 6 to 8-week old female BALB/c nude mice (n=12/group). Tumor growth in bones and lungs was monitored weekly by GFP imaging in live animals. Mice were culled 28 days after tumor cell injection at which timepoint hind limbs, lungs and serum were resected and processed for microcomputed tomography imaging (pCT), histology and ELISA analysis of bone turnover markers and circulating cytokines as described (Holen et al., 2016).

[2] = test system: locally advanced or metastatic non-small cell lung cancer; parameters: species or system human; details: in vivo
From the text: A Randomized, Double-Blind Phase III Study of Pembrolizumab+Platinum-based Chemotherapy with or without Canakinumab as First Line Therapy for Locally Advanced or Metastatic Non-squamous and Squamous Non-small Cell Lung Cancer Subjects The study population includes adult patients with first-line locally advanced stage IIIB (not eligible for definitive chemo-radiation therapy) or stage IV metastatic non-small cell lung cancer (NSCLC), without EGFR mutations or ALK translocation. Only patients who have not previously been treated with any systemic anti-cancer therapy are included, with the exception of neo-adjuvant or adjuvant therapy (if relapse has occurred more than 12 months from the end of that therapy). In addition, subjects should be without known B-RAF mutation or ROS-1 genetic aberrations.
The non-randomized safety run-in portion of the study will be done with canakinumab in combination with pembrolizumab and three platinum-based doublet chemotherapies: carboplatin+pemetrexed (patients with non-squamous tumors), cisplatin+pemetrexed (patients with non-squamous tumors), and carboplatin+paclitaxel (patients with either squamous or non-squamous tumor). Non-squamous tumor histology subjects who receive paclitaxel-carboplatin with pembrolizumab in the safety-run-in and achieve stable disease (SD) or better will receive pemetrexed maintenance after completing induction. […] The secondary objectives are to characterize safety and tolerability, pharmacokinetics, immunogenicity, and to assess the preliminary clinical anti-tumor activity. The analysis to determine the recommended phase III dose regimen (RP3R) will be conducted when at least 6 evaluable patients in each of the 3 treatment cohorts have been observed for dose limiting toxicity (DLT) for at least 42 days at the starting dose level to establish the RP3R.
At data cut-off, 6 patients (3 in A, 2 in B and 1 in C) of the 30 treated patients, discontinued the study treatment. The primary reason for treatment discontinuation was PD (3 patients in A and 1 patient each in B and C)

[3] = CANTOS immunogenicity, bridging ECLIA for anti-drug antibodies; type: in vivo, human
Experimental: During the CANTOS trial, blood samples for immunogenicity assessments were collected at baseline Month 12, 24 and end of study visit. Immunogenicity was analyzed using a bridging immunogenicity electrochemiluminescence immunoassay (ECLIA). Samples were pre-treated with acetic acid and neutralized in buffer containing labeled drug (biotinylated ACZ885 and sulfo-TAG (Ruthenium) labeled ACZ885). Anti-canakinumab antibodies (anti-drug antibodies) were captured by a combination of biotinylated and sulfo-TAG labeled forms of ACZ885. Complex formation was subsequently detected by electrochemiluminescence by capturing complexes on Mesoscale Discovery Streptavidin (MSD) plates.

[4] = test system: patients with atherosclerosis who had had a myocardial infarction; details: compared with placebo, median follow-up 3.7 years, cited from earlier work
mouse IL-1β = mouse IL-1β (Mus musculus, UniProt P10749); experiment: Cross-reactivity with mouse IL-1β; type: binding
mouse IL-1β, sequence (P10749 118-269): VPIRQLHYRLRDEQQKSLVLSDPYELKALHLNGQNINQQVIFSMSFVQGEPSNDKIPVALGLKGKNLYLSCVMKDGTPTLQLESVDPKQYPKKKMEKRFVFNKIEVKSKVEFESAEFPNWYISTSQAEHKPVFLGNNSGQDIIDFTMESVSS

canakinumab: high-affinity, fully human monoclonal antibody of the IgG1/k to interleukin-1β
average length of CD34+ blood vessels in trabecular bone ([1]; IL-1Ra 1 mg/kg daily (BALB/c nude), canakinumab single dose (C57BL/6), p<0.01): reduced the average length
endothelin 1 concentration (ELISA) ([1]; compared with control, p<0.01): reduced concentrations
VEGF concentration (ELISA) ([1]; compared with control, p<0.01 IL-1R antagonist, p<0.001 canakinumab): reduced concentrations
AEs leading to discontinuation of one of the study drugs [2]: 3 patients
AEs leading to dose interruption: decreased neutrophil count [2]: 3 patients
AEs leading to dose interruption: decreased white blood cell count [2]: 1 patient
AEs leading to dose interruption: neutropenia [2]: 1 patient
AEs leading to dose reduction: myalgia [2]: 1 patients
AEs leading to dose reduction: peripheral neuropathy [2]: 2 patients
Grade 5 adverse events [2]: No Grade 5 adverse events were observed
patients with dose limiting toxicity (DLT) [2]: 1 patient
patients with grade 3 AEs [2]: 13 patients
patients with grade 4 AE [2]: 1 patient
patients with treatment-emergent anti-canakinumab antibodies ([3]; canakinumab 150 mg group): 0.4%
patients with treatment-emergent anti-canakinumab antibodies ([3]; canakinumab 300 mg group): 0.3%
association of anti-drug antibodies with AEs or hsCRP response ([3]; in vivo): not associated with immunogenicity related AEs or altered hsCRP response
reductions in concentrations of hsCRP ([4]; dose-dependent (50, 150, 300 mg sc every 3 months)): 26-41%
reductions in concentrations of interleukin 6 ([4]; dose-dependent): 25-43%
cross-reactivity with mouse IL-1β (mouse IL-1β): does not cross-react to murine IL-1β
cross-reactivity with mouse IL-1β (mouse IL-1β; listed as Canakinumab): does not cross-react with mouse IL-1β
